From ChEMBL document CHEMBL4402607, “Molecular Basis for Omapatrilat and Sampatrilat Binding to Neprilysin-Implications for Dual Inhibitor Design with Angiotensin-Converting Enzyme” (J Med Chem, 2020)

Substrate: N=C(N)NCCC[C@H](NC(=O)[C@H](Cc1ccccc1)NC(=O)[C@@H]1CCCN1C(=O)[C@H](CO)NC(=O)[C@H](Cc1ccccc1)NC(=O)CNC(=O)[C@@H]1CCCN1C(=O)[C@@H]1CCCN1C(=O)[C@@H](N)CCCNC(=N)N)C(=O)O
Assay: Substrate activity at human ACE expressed in CHO cells by HPLC analysis
Format: cell-based

B1: Angiotensin-converting enzyme (Homo sapiens), P12821 (protein)
chain: MGAASGRRGPGLLLPLPLLLLLPPQPALALDPGLQPGNFSADEAGAQLFAQSYNSSAEQVLFQSVAASWAHDTNITAENARRQEEAALLSQEFAEAWGQKAKELYEPIWQNFTDPQLRRIIGAVRTLGSANLPLAKRQQYNALLSNMSRIYSTAKVCLPNKTATCWSLDPDLTNILASSRSYAMLLFAWEGWHNAAGIPLKPLYEDFTALSNEAYKQDGFTDTGAYWRSWYNSPTFEDDLEHLYQQLEPLYLNLHAFVRRALHRRYGDRYINLRGPIPAHLLGDMWAQSWENIYDMVVPFPDKPNLDVTSTMLQQGWNATHMFRVAEEFFTSLELSPMPPEFWEGSMLEKPADGREVVCHASAWDFYNRKDFRIKQCTRVTMDQLSTVHHEMGHIQYYLQYKDLPVSLRRGANPGFHEAIGDVLALSVSTPEHLHKIGLLDRVTNDTESDINYLLKMALEKIAFLPFGYLVDQWRWGVFSGRTPPSRYNFDWWYLRTKYQGICPPVTRNETHFDAGAKFHVPNVTPYIRYFVSFVLQFQFHEALCKEAGYEGPLHQCDIYRSTKAGAKLRKVLQAGSSRPWQEVLKDMVGLDALDAQPLLKYFQPVTQWLQEQNQQNGEVLGWPEYQWHPPLPDNYPEGIDLVTDEAEASKFVEEYDRTSQVVWNEYAEANWNYNTNITTETSKILLQKNMQIANHTLKYGTQARKFDVNQLQNTTIKRIIKKVQDLERAALPAQELEEYNKILLDMETTYSVATVCHPNGSCLQLEPDLTNVMATSRKYEDLLWAWEGWRDKAGRAILQFYPKYVELINQAARLNGYVDAGDSWRSMYETPSLEQDLERLFQELQPLYLNLHAYVRRALHRHYGAQHINLEGPIPAHLLGNMWAQTWSNIYDLVVPFPSAPSMDTTEAMLKQGWTPRRMFKEADDFFTSLGLLPVPPEFWNKSMLEKPTDGREVVCHASAWDFYNGKDFRIKQCTTVNLEDLVVAHHEMGHIQYFMQYKDLPVALREGANPGFHEAIGDVLALSVSTPKHLHSLNLLSSEGGSDEHDINFLMKMALDKIAFIPFSYLVDQWRWRVFDGSITKENYNQEWWSLRLKYQGLCPPVPRTQGDFDPGAKFHIPSSVPYIRYFVSFIIQFQFHEALCQAAGHTGPLHKCDIYQSKEAGQRLATAMKLGFSRPWPEAMQLITGQPNMSASAMLSYFKPLLDWLRTENELHGEKLGWPQYNWTPNSARSEGPLPDSGRVSFLGLDLDAQQARVGQWLLLFLGIALLVATLGLSQRLFSIRHRSLHRHSHGPQFGSEVELRHS
- Km: 0.18 µM
